For five sequences, activity results are on record in patent publication US20250361529.

The target in the data set is T1, UnCas12f1 (Un1Cas12f1) (UniProt A0A482D308).
T1 sequence: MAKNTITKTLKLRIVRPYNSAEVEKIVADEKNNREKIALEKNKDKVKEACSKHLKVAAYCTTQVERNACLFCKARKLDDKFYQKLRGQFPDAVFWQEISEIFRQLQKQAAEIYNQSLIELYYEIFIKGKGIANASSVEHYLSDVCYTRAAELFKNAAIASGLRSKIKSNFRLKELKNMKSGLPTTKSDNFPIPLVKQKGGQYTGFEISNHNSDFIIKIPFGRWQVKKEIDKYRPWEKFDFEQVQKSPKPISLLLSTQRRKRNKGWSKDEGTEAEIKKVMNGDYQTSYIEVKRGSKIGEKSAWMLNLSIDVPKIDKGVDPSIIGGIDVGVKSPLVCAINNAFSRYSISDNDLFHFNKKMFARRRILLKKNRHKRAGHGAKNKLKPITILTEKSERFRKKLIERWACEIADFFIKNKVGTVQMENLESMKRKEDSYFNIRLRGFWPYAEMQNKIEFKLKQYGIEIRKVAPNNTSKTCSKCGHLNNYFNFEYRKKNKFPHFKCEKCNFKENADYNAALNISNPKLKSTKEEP
The experiment in a line: cell_activity.

Take “ACCGCUUCACUUAGAGUGAAGGUGGGCUGCUUGCAUCAGCCUAAUGUCGAGAAGUGCUUUCUUCGGAAAGUAACCCUCGAAACAAAGAAAGGAAUGCAACNNNNNNNNNNNNNNNNNNNNUUUUAUUUUUUACUGACUACUCCCCAAGUAU / TTTGACTGACTACTCCCCAAGTAT / ATACTTGGGGAGTAGTCAGTCAAA [ge4.1-F110 sgRNA ; DMD F110 target]”: the activity (ge4.1, PAM TTTG, HEK293, 5 days, no editing detected) amounted to 0 % indel. As to “ACCGCUUCACUUAGAGUGAAGGUGGGCUGCUUGCAUCAGCCUAAUGUCGAGAAGUGCUUUCUUCGGAAAGUAACCCUCGAAACAAAGAAAGGAAUGCAACNNNNNNNNNNNNNNNNNNNNUUUUAUUUUUUCUCAUUCUCAUGCCUGGACA / TTTGCTCATTCTCATGCCTGGACA / TGTCCAGGCATGAGAATGAGCAAA [ge4.1-F142 sgRNA ; DMD F142 target]”, the activity (PAM TTTR (TTTG), HEK293, AC16 19.18) was 50 % indel. For the setting “PAM TTTR (TTTG), HEK293, AC16 48.08”, “ACCGCUUCACCAAAAGCUGUCCCUUAGGGGAUUAGAACUUGAGUGAAGGUGGGCUGCUUGCAUCAGCCUAAUGUCGAGAAGUGCUUUCUUCGGAAAGUAACCCUCGAAACAAAGAAAGGAAUGCAACNNNNNNNNNNNNNNNNNNNNUUUUAUUUUUUCUCAUUCUCAUGCCUGGACA / TTTGCTCATTCTCATGCCTGGACA / TGTCCAGGCATGAGAATGAGCAAA [ge4.0-F142 sgRNA ; DMD F142 target]” came in with an activity of 54 % indel.

For the setting “PAM TTTR (TTTG), HEK293, AC16 36.47”, “ACCGCUUCACCAAAAGCUGUCCCUUAGGGGAUUAGAACUUGAGUGAAGGUGGGCUGCUUGCAUCAGCCUAAUGUCGAGAAGUGCUUUCUUCGGAAAGUAACCCUCGAAACAAAGAAAGGAAUGCAACNNNNNNNNNNNNNNNNNNNNUUUUAUUUUUUCUCUCCUAGACCAUUUCCCA / TTTGCTCTCCTAGACCATTTCCCA / TGGGAAATGGTCTAGGAGAGCAAA [ge4.0-R52 sgRNA ; DMD R52 target]” displayed an activity of 46.1 % indel. “ACCGCUUCACUUAGAGUGAAGGUGGGCUGCUUGCAUCAGCCUAAUGUCGAGAAGUGCUUUCUUCGGAAAGUAACCCUCGAAACAAAGAAAGGAAUGCAACNNNNNNNNNNNNNNNNNNNNUUUUAUUUUUUUAGCUAGAUAAACUUGGGCU / TTTATAGCTAGATAAACTTGGGCT / AGCCCAAGTTTATCTAGCTATAAA [ge4.1-R16 sgRNA ; DMD R16 target]”: the activity (PAM TTTR (TTTA), HEK293, AC16 29.76) amounted to 58.8 % indel.
